Experimental data as given in doi:10.1101/2020.06.11.147496.

Assays:
[1] = molecular target: LuS-N71-SpyTag (Aquifex aeolicus lumazine synthase nanoparticle with a glycan at N71 and SpyTag at the N-terminus) (Aquifex aeolicus)
[2] = molecular target: ferritin-N96-SpyTag (Helicobacter pylori ferritin nanoparticle with a glycan at N96 and SpyTag) (Helicobacter pylori)

With “RSV F-SpyCatcher (respiratory syncytial virus prefusion F 'DS2' trimer with SpyCatcher at the C-terminus)” the percent of nanoparticle subunits conjugated [1] was 67% and the percent of nanoparticle subunits conjugated [2] was 85%.
